# Like-named read-outs stand apart in the source and are kept apart here. Starred links: 1 amine or outer side, 2 acyl side, 3 side chain; linkers in the order of their positions; H or OH if unused. Non-standard residues stand in square brackets, D forms with d. No end group written: not given here. *: point of attachment. Thr(Bzl) = O-benzyl-threonine, C[C@@H](OCc1ccccc1)[C@H](N[*:1])C(=O)[*:2]; Ser(Bzl) = O-benzyl-serine, O=C([C@H](COCc1ccccc1)N[*:1])[*:2]; dPhe(4-Cl) = N[C@H](Cc1ccc(Cl)cc1)C(=O)O; Heptanoyl = CCCCCCC(=O)*; Ahp = NCCCCCCC(=O)O
# B1: Heptanoyl-Thr(Bzl)-D-Phe(4-Cl)-Arg-Trp-NH2 (peptide)
# peptide: Heptanoyl-[Thr(Bzl)][dPhe(4-Cl)]RW-NH2
# SMILES: CCCCCCC(=O)N[C@H](C(=O)N[C@H](Cc1ccc(Cl)cc1)C(=O)N[C@@H](CCCNC(=N)N)C(=O)N[C@@H](Cc1c[nH]c2ccccc12)C(N)=O)[C@@H](C)OCc1ccccc1
# notes: also called Compound No. 23
# B2: NH2-(CH2)6-C(=O)-Ser(Bzl)-D-Phe(4-Cl)-Arg-Trp-Asp-Phe-NH2 (peptide)
# peptide: [Ahp][Ser(Bzl)][dPhe(4-Cl)]RWDF-NH2
# modifications: N-terminus assumed
# SMILES: N=C(N)NCCC[C@H](NC(=O)[C@@H](Cc1ccc(Cl)cc1)NC(=O)[C@H](COCc1ccccc1)NC(=O)CCCCCCN)C(=O)N[C@@H](Cc1c[nH]c2ccccc12)C(=O)N[C@@H](CC(=O)O)C(=O)N[C@@H](Cc1ccccc1)C(N)=O
# notes: also called Compound No. 14
# B3: NH2-(CH2)6-C(=O)-Ser(Bzl)-D-Phe(4-Cl)-Arg-Trp-Asp-NH2 (peptide)
# peptide: [Ahp][Ser(Bzl)][dPhe(4-Cl)]RWD-NH2
# modifications: N-terminus assumed
# SMILES: N=C(N)NCCC[C@H](NC(=O)[C@@H](Cc1ccc(Cl)cc1)NC(=O)[C@H](COCc1ccccc1)NC(=O)CCCCCCN)C(=O)N[C@@H](Cc1c[nH]c2ccccc12)C(=O)N[C@@H](CC(=O)O)C(N)=O
# notes: also called Compound No. 13
# B4: NH2-(CH2)6-C(=O)-Ser(Bzl)-D-Phe(4-Cl)-Arg-Trp-Ala-NH2 (peptide)
# peptide: [Ahp][Ser(Bzl)][dPhe(4-Cl)]RWA-NH2
# modifications: N-terminus assumed
# SMILES: C[C@H](NC(=O)[C@H](Cc1c[nH]c2ccccc12)NC(=O)[C@H](CCCNC(=N)N)NC(=O)[C@@H](Cc1ccc(Cl)cc1)NC(=O)[C@H](COCc1ccccc1)NC(=O)CCCCCCN)C(N)=O
# notes: also called Compound No. 15
# Tests used:
# [1] = molecular target: T1, MC1-R of B-16 mouse melanoma cells (mouse, UniProt Q01727 1-315); experiment: radioligand competition, [I125]-NDP-α-MSH, B-16 membranes
# T1 construct: whole, on cells; also called B16-F10 (MC1-R)
# T1 sequence (Q01727 whole entry): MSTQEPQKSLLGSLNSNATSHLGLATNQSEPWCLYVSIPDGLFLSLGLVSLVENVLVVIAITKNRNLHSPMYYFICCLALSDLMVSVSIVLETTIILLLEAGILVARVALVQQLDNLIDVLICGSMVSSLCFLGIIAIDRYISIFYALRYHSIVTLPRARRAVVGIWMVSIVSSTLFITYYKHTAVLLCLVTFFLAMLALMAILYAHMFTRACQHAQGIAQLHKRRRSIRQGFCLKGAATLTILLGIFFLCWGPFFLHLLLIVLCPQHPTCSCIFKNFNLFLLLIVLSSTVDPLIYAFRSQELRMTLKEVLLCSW
# [2] = molecular target: T2, human melanocortin 4 receptor (human, UniProt P32245 1-332); experiment: radioligand competition, [I125]-NDP-α-MSH, hMC4-R membranes
# T2 construct: whole, on cells; cAMP assays used whole cells; also called hMC4-R; MC4-R
# T2 sequence (P32245 whole entry): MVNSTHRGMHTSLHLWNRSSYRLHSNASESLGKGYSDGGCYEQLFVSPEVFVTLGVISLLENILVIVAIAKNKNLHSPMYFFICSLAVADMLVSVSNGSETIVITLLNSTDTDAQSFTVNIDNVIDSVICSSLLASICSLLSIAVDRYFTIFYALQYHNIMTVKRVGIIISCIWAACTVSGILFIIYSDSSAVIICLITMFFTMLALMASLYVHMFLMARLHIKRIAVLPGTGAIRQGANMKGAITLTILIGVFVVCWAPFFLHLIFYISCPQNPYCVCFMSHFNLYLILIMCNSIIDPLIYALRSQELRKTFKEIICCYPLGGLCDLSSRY
# [3] = molecular target: T3, human melanocortin 3 receptor (human, UniProt P41968 1-323); experiment: radioligand competition, [I125]-NDP-α-MSH, hMC3-R membranes
# T3 construct: whole, on cells; also called hMC3-R; MC3-R
# T3 sequence (P41968 whole entry): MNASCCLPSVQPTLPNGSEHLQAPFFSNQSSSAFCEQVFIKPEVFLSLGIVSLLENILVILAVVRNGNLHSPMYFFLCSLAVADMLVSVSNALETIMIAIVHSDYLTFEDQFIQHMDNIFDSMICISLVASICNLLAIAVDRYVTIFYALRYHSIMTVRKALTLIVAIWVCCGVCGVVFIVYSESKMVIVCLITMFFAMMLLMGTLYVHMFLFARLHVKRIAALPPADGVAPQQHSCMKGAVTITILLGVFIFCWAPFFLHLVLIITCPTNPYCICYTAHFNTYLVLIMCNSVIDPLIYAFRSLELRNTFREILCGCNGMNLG
# [4] = molecular target: T2, human melanocortin 4 receptor; experiment: cell-based or functional assay
# [5] = molecular target: T2, human melanocortin 4 receptor; experiment: cell-based or functional assay; remark: listed apart in the source
# [6] = molecular target: T4, human melanocortin 5 receptor (human, UniProt P33032 1-325); experiment: radioligand competition, [I125]-NDP-α-MSH, hMC5-R membranes
# T4 construct: whole, on cells; also called hMC5-R; MC5-R
# T4 sequence (P33032 whole entry): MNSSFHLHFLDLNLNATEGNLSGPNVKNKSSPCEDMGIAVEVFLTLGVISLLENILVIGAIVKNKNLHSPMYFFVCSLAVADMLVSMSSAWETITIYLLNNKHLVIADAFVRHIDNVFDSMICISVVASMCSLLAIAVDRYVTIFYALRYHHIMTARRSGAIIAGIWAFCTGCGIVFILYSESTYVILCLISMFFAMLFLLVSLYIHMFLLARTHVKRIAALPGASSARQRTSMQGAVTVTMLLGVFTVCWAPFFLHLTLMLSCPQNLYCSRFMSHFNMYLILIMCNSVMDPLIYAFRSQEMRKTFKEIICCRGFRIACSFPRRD
# [7] = molecular target: T1, MC1-R of B-16 mouse melanoma cells; experiment: radioligand competition, [I125]-NDP-α-MSH, B-16 membranes; remark: listed apart in the source
# [8] = molecular target: T3, human melanocortin 3 receptor; experiment: radioligand competition, [I125]-NDP-α-MSH, hMC3-R membranes; remark: listed apart in the source
# [9] = molecular target: T2, human melanocortin 4 receptor; experiment: cell-based or functional assay; remark: listed apart in the source
# [10] = molecular target: T4, human melanocortin 5 receptor; experiment: radioligand competition, [I125]-NDP-α-MSH, hMC5-R membranes; remark: listed apart in the source
# [11] = molecular target: T2, human melanocortin 4 receptor; experiment: radioligand competition, [I125]-NDP-α-MSH, hMC4-R membranes; remark: listed apart in the source
# [12] = molecular target: T4, human melanocortin 5 receptor; experiment: radioligand competition, [I125]-NDP-α-MSH, hMC5-R membranes; remark: listed apart in the source
# [13] = molecular target: T1, MC1-R of B-16 mouse melanoma cells; experiment: radioligand competition, [I125]-NDP-α-MSH, B-16 membranes; remark: listed apart in the source
# [14] = molecular target: T2, human melanocortin 4 receptor; experiment: cell-based or functional assay; remark: listed apart in the source
# [15] = molecular target: T2, human melanocortin 4 receptor; experiment: radioligand competition, [I125]-NDP-α-MSH, hMC4-R membranes; remark: listed apart in the source
# [16] = molecular target: T3, human melanocortin 3 receptor; experiment: radioligand competition, [I125]-NDP-α-MSH, hMC3-R membranes; remark: listed apart in the source
# [17] = molecular target: T4, human melanocortin 5 receptor; experiment: radioligand competition, [I125]-NDP-α-MSH, hMC5-R membranes; remark: listed apart in the source
# [18] = molecular target: T3, human melanocortin 3 receptor; experiment: radioligand competition, [I125]-NDP-α-MSH, hMC3-R membranes; remark: listed apart in the source
# [19] = molecular target: T2, human melanocortin 4 receptor; experiment: cell-based or functional assay; remark: listed apart in the source
# [20] = molecular target: T2, human melanocortin 4 receptor; experiment: radioligand competition, [I125]-NDP-α-MSH, hMC4-R membranes; remark: listed apart in the source
# [21] = molecular target: T1, MC1-R of B-16 mouse melanoma cells; experiment: radioligand competition, [I125]-NDP-α-MSH, B-16 membranes; remark: listed apart in the source
binder,measurement,setting,value
B1,Ki,[1],747 nM
same,Ki,[2],21 nM
same,Ki,[3],374 nM
same,"EC50 (nM) (cAMP), High Receptor Density System",[4],184 nM
same,"EC50 (nM), normal system (cAMP)",[5],> 1000 nM
same,"intrinsic activity, normal system (cAMP)",[5],0.4
same,Ki,[6],292 nM
B2,Ki,[7],242 nM
same,Ki,[8],76 nM
same,"EC50 (nM) (cAMP), High Receptor Density System",[9],141 nM
same,"EC50, normal system (cAMP)",[5],238 nM
same,"intrinsic activity, normal system (cAMP)",[5],0.5
same,Ki,[10],405 nM
same,Ki,[11],5 nM
B3,"EC50 (nM), normal system (cAMP)",[5],568 nM
same,"intrinsic activity, normal system (cAMP)",[5],0.5
same,Ki,[12],596 nM
same,Ki,[13],760 nM
same,"EC50 (nM) (cAMP), High Receptor Density System",[14],34 nM
same,Ki,[15],9 nM
same,Ki,[16],180 nM
B4,Ki,[17],112 nM
same,Ki,[18],35 nM
same,"EC50 (nM) (cAMP), High Receptor Density System",[19],55 nM
same,"EC50, normal system (cAMP)",[5],> 1000 nM
same,"intrinsic activity, normal system (cAMP)",[5],< 0.1
same,Ki,[20],2 nM
same,Ki,[21],142 nM

# — patent US20090081197A1 (PALATIN TECHNOLOGIES, published 2009)
